According to patent publication US12269859B2, “Synthetic immune receptors and methods of use thereof” (Angeles Therapeutics, Inc., priority 2016, dated 2025):

Test system: target antigen-expressing cell line
Assay: Jurkat NFAT-GFP assay, coculture with target cell lines expressing the respective target antigen (summary Table 10A)
Assay type: cell-based, human
Design: key: The signs +/−, +, 2+ etc. after the name of the cell lines indicate the relative degree of positivity on the Jurkat-NFAT-GFP assay as measured by the % GFP positive cells; +: relative degree of positivity on the Jurkat-NFAT-GFP assay as measured by the % GFP positive cells; 2+: relative degree of positivity on the Jurkat-NFAT-GFP assay as measured by the % GFP positive cells
Summary of the method: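 Read-out: % GFP+ cells by FACS. SIR-transduced, puromycin-selected Jurkat NFAT-GFP (IL-2 promoter reporter) cocultured ~4–18 h with target line, E:T ~1:2; parental cells as control; graded +/−, +, 2+ relative to parental.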

B1: 031517-Q04 (protein)
chain: MALPVTALLLPLALLLHAARPLEGKPIPNPLLGLDSTGSGEDLKNVFPPEVAVFEPSKAEIAHTQKATLVCLATGFYPDHVELSWWVNGKEVHSGVCTDPQPLKEQPALNDSRYCLSSRLRVSATFWQNPRNHFRCQVQFYGLSENDEWTQDRAKPVTQIVSAEAWGRADCGITSASYHQGVLSATILYEILLGKATLYAVLVSALVLMAMVKRKDSRGRAKRSGSGATNFSLLKQAGDVEENPGPTSMALPVTALLLPLALLLHAARPQSVVTQPASVSGSPGQSITISCTGTSSDVGGYNYVSWYQQHPGKAPKLMIYDVSKRPSGVSNRFSGSKSGNTASLTISGLQAEDEADYYCSSYTSSSTLVFGGGTKLTVLGGGGGSGGGGSGGGGSEVQLVESGGAFVQPGGSLRLSCAASGFTFSSYAMTWVRQAPGKGLEWVSTISGRGRSTFYADSVKGRFTISRDNSKNTLYLQMNSLRAEDTAVYYCARYYHAGAFDLWGQGTLVTVSSTREQKLISEEDGSGIQNPDPAVYQLRDSKSSDKSVCLFTDFDSQTNVSQSKDSDVYITDKCVLDMRSMDFKSNSAVAWSNKSDFACANAFNNSIIPEDTFFPSSDVPCDVKLVEKSFETDTNLNFQNLSVIGFRILLLKVAGFNLLMTLRLWSSRAKRSGSGVKQTLNFDLLKLAGDVESNPGPSRGHMTEYKPTVRLATRDDVPRAVRTLAAAFADYPATRHTVDPDRHIERVTELQELFLTRVGLDIGKVWVADDGAAVAVWTTPESVEAGAVFAEIGPRMAELSGSRLAAQQQMEGLLAPHRPKEPAWFLATVGVSPDHQGKGLGSAVVLPGVEAAERAGVPAFLETSAPRNLPFYERLGFTVTADVEVPEGPRTWCMTRKPGA
NFAT-GFP ASSAY Positive Cell lines (coculture with L363 cells): L363 (+/−)

B2: 060717-L04 (protein)
chain: MALPVTALLLPLALLLHAARPQSVVTQPASVSGSPGQSITISCTGTSSDVGGYNYVSWYQQHPGKAPKLMIYDVSKRPSGVSNRFSGSKSGNTASLTISGLQAEDEADYYCSSYTSSSTLVFGGGTKLTVLGLEIQNPDPAVYQLRDSKSSDKSVCLFTDFDSQTNVSQSKDSDVYITDKCVLDMRSMDFKSNSAVAWSNKSDFACANAFNNSIIPEDTFFPSSDVPCDVKLVEKSFETDTNLNFQNLSVIGFRILLLKVAGFNLLMTLRLWSSRAKRSGSGVKQTLNFDLLKLAGDVESNPGPTSMDWIWRILFLVGAATGAHSFEEVQLVESGGAFVQPGGSLRLSCAASGFTFSSYAMTWVRQAPGKGLEWVSTISGRGRSTFYADSVKGRFTISRDNSKNTLYLQMNSLRAEDTAVYYCARYYHAGAFDLWGQGTLVTVSSTREDLKNVFPPEVAVFEPSKAEIAHTQKATLVCLATGFYPDHVELSWWVNGKEVHSGVCTDPQPLKEQPALNDSRYCLSSRLRVSATFWQNPRNHFRCQVQFYGLSENDEWTQDRAKPVTQIVSAEAWGRADCGITSASYHQGVLSATILYEILLGKATLYAVLVSALVLMAMVKRKDSRGRAKRSGSGATNFSLLKQAGDVEENPGPSRGHMTEYKPTVRLATRDDVPRAVRTLAAAFADYPATRHTVDPDRHIERVTELQELFLTRVGLDIGKVWVADDGAAVAVWTTPESVEAGAVFAEIGPRMAELSGSRLAAQQQMEGLLAPHRPKEPAWFLATVGVSPDHQGKGLGSAVVLPGVEAAERAGVPAFLETSAPRNLPFYERLGFTVTADVEVPEGPRTWCMTRKPGA
NFAT-GFP ASSAY Positive Cell lines (coculture with L363 cells): 2+
NFAT-GFP ASSAY Positive Cell lines (coculture with U266 cells): +

B3: 091616-Y01 (protein)
chain: MALPVTALLLPLALLLHAARPDIQMTQSPSSLSASVGDTVTITCQANGYLNWYQQRRGKAPKLLIYDGSKLERGVPSRFSGRRWGQEYNLTINNLQPEDIATYFCQVYEFVVPGTRLDLKRTVAAPLEEQKLISEEDLGSGEDLKNVFPPEVAVFEPSKAEIAHTQKATLVCLATGFYPDHVELSWWVNGKEVHSGVCTDPQPLKEQPALNDSRYCLSSRLRVSATFWQNPRNHFRCQVQFYGLSENDEWTQDRAKPVTQIVSAEAWGRADCGITSASYHQGVLSATILYEILLGKATLYAVLVSALVLMAMVKRKDSRGRAKRSGSGATNFSLLKQAGDVEENPGPTSMDWIWRILFLVGAATGAHSFEQVQLLQSGAAVTKPGASVRVSCEASGYNIRDYFIHWWRQAPGQGLQWVGWINPKTGQPNNPRQFQGRVSLTRHASWDFDTFSFYMDLKALRSDDTAVYFCARQRSDYWDFDVWGSGTQVTVSSASTKGPTREQKLISEEDGSGIQNPDPAVYQLRDSKSSDKSVCLFTDFDSQTNVSQSKDSDVYITDKCVLDMRSMDFKSNSAVAWSNKSDFACANAFNNSIIPEDTFFPSSDVPCDVKLVEKSFETDTNLNFQNLSVIGFRILLLKVAGFNLLMTLRLWSSRAKRSGSGVKQTLNFDLLKLAGDVESNPGPSRGHMTEYKPTVRLATRDDVPRAVRTLAAAFADYPATRHTVDPDRHIERVTELQELFLTRVGLDIGKVWVADDGAAVAVWTTPESVEAGAVFAEIGPRMAELSGSRLAAQQQMEGLLAPHRPKEPAWFLATVGVSPDHQGKGLGSAVVLPGVEAAERAGVPAFLETSAPRNLPFYERLGFTVTADVEVPEGPRTWCMTRKPGA
modifications: Synthetic Immune Receptor (SIR)
NFAT-GFP ASSAY Positive Cell lines (coculture with HL2-3 cells): HL2-3 (+/−)

B4: 091616-X01 (protein)
chain: MALPVTALLLPLALLLHAARPELVLTQSPGTLSLSAGERATLSCRASQSVSSGSLAWYQQKPGQAPRLLIYGASTRATGIPDRFSGSGSGTDFTLTIGRLEPEDLAVYYCQQYGTSPYTFGQGTKLEILEEQKLISEEDLGSGEDLKNVFPPEVAVFEPSKAEIAHTQKATLVCLATGFYPDHVELSWWVNGKEVHSGVCTDPQPLKEQPALNDSRYCLSSRLRVSATFWQNPRNHFRCQVQFYGLSENDEWTQDRAKPVTQIVSAEAWGRADCGITSASYHQGVLSATILYEILLGKATLYAVLVSALVLMAMVKRKDSRGRAKRSGSGATNFSLLKQAGDVEENPGPTSMDWIWRILFLVGAATGAHSFELEQSGAEVKKPGSSVQVSCKASGGTFSMYGFNWVRQAPGHGLEWMGGIIPIFGTSNYAQKFRGRVTFTADQATSTAYMELTNLRSDDTAVYYCARDFGPDWEDGDSYDGSGRGFFDFWGQGTLVTVSSTREQKLISEEDGSGIQNPDPAVYQLRDSKSSDKSVCLFTDFDSQTNVSQSKDSDVYITDKCVLDMRSMDFKSNSAVAWSNKSDFACANAFNNSIIPEDTFFPSSDVPCDVKLVEKSFETDTNLNFQNLSVIGFRILLLKVAGFNLLMTLRLWSSRAKRSGSGVKQTLNFDLLKLAGDVESNPGPSRGHMTEYKPTVRLATRDDVPRAVRTLAAAFADYPATRHTVDPDRHIERVTELQELFLTRVGLDIGKVWVADDGAAVAVWTTPESVEAGAVFAEIGPRMAELSGSRLAAQQQMEGLLAPHRPKEPAWFLATVGVSPDHQGKGLGSAVVLPGVEAAERAGVPAFLETSAPRNLPFYERLGFTVTADVEVPEGPRTWCMTRKPGA
modifications: Synthetic Immune Receptor (SIR)
NFAT-GFP ASSAY Positive Cell lines (coculture with HL2-3 cells): HL2-3 (+/−)
NFAT-GFP ASSAY Positive Cell lines (coculture with TF228.1.1.6 cells): TF228.1.1.6 (+),

B5: 040716-H06 (protein)
chain: MALPVTALLLPLALLLHAARPDEFDVQLVESGGGLVQPGGSLRLSCAASGSIGGLNAMAWYRQAPGKERELVAGIFGVGSTRYADSVKGRFTISRDNSKNTVYLQMNSLRPEDTAVYYCRMSSVTRGSSDYWGQGTLVTVSSLEGGGGSGGGGSGGGGSGSGGSGSGGSGSGGSGSGGSFEVQLVESGGSLVQPGGSLRLSCAASGFTFDDYAMSWVRQVPGKGLEWVSSINWSGTHTDYADSVKGRFTISRNNANNTLYLQMNSLKSEDTAVYYCAKNWRDAGTTWFEKSGSAGQGTQVTVSSTREQKLISEEDGSGIQNPDPAVYQLRDSKSSDKSVCLFTDFDSQTNVSQSKDSDVYITDKCVLDMRSMDFKSNSAVAWSNKSDFACANAFNNSIIPEDTFFPSSDVPCDVKLVEKSFETDTNLNFQNLSVIGFRILLLKVAGFNLLMTLRLWSSRAKRSGSGVKQTLNFDLLKLAGDVESNPGPSRGHMTEYKPTVRLATRDDVPRAVRTLAAAFADYPATRHTVDPDRHIERVTELQELFLTRVGLDIGKVWVADDGAAVAVWTTPESVEAGAVFAEIGPRMAELSGSRLAAQQQMEGLLAPHRPKEPAWFLATVGVSPDHQGKGLGSAVVLPGVEAAERAGVPAFLETSAPRNLPFYERLGFTVTADVEVPEGPRTWCMTRKPGA
modifications: Polynucleotide encoding a Synthetic Immune Receptor (SIR)
NFAT-GFP ASSAY Positive Cell lines (coculture with MCF7 cells): MCF7 (+), SKBR3 (+)
NFAT-GFP ASSAY Positive Cell lines (coculture with SKBR3 cells): MCF7 (+), SKBR3 (+)

B6: 040716-B03 (protein)
chain: MALPVTALLLPLALLLHAARPLEGKPIPNPLLGLDSTGSGEDLKNVFPPEVAVFEPSKAEIAHTQKATLVCLATGFYPDHVELSWWVNGKEVHSGVCTDPQPLKEQPALNDSRYCLSSRLRVSATFWQNPRNHFRCQVQFYGLSENDEWTQDRAKPVTQIVSAEAWGRADCGITSASYHQGVLSATILYEILLGKATLYAVLVSALVLMAMVKRKDSRGRAKRSGSGATNFSLLKQAGDVEENPGPTSMALPVTALLLPLALLLHAARPDEFDVQLVESGGGLVQPGGSLRLSCAASGSIGGLNAMAWYRQAPGKERELVAGIFGVGSTRYADSVKGRFTISRDNSKNTVYLQMNSLRPEDTAVYYCRMSSVTRGSSDYWGQGTLVTVSSLEGGGGSGGGGSGGGGSGSGGSGSGGSGSGGSGSGGSFEVQLVESGGSLVQPGGSLRLSCAASGFTFDDYAMSWVRQVPGKGLEWVSSINWSGTHTDYADSVKGRFTISRNNANNTLYLQMNSLKSEDTAVYYCAKNWRDAGTTWFEKSGSAGQGTQVTVSSTREQKLISEEDGSGIQNPDPAVYQLRDSKSSDKSVCLFTDFDSQTNVSQSKDSDVYITDKCVLDMRSMDFKSNSAVAWSNKSDFACANAFNNSIIPEDTFFPSSDVPCDVKLVEKSFETDTNLNFQNLSVIGFRILLLKVAGFNLLMTLRLWSSRAKRSGSGVKQTLNFDLLKLAGDVESNPGPSRGHMTEYKPTVRLATRDDVPRAVRTLAAAFADYPATRHTVDPDRHIERVTELQELFLTRVGLDIGKVWVADDGAAVAVWTTPESVEAGAVFAEIGPRMAELSGSRLAAQQQMEGLLAPHRPKEPAWFLATVGVSPDHQGKGLGSAVVLPGVEAAERAGVPAFLETSAPRNLPFYERLGFTVTADVEVPEGPRTWCMTRKPGA
modifications: Synthetic Immune Receptor (SIR)
NFAT-GFP ASSAY Positive Cell lines (coculture with A431 cells): (+), A431 (+)
NFAT-GFP ASSAY Positive Cell lines (coculture with MCF7 cells): MCF7 (+/−), SKBR3
NFAT-GFP ASSAY Positive Cell lines (coculture with SKBR3 cells): (+), A431 (+)
